Assay results as given in ChEMBL document CHEMBL1132371, “5-deazafolate analogues with a rotationally restricted glutamate or ornithine side chain: synthesis and binding interaction with folylpolyglutamate synthetase” (J Med Chem, 1999).

How the values were obtained:
[1] = target: T1, Folylpolyglutamate synthase, mitochondrial (Homo sapiens, UniProt Q05932); assay: Binding affinity as Competitive substrate in the presence of […] aminopterin towards recombinant Human Folyl-polyglutamate synthase (FPGS)
T1 sequence (Q05932 whole entry): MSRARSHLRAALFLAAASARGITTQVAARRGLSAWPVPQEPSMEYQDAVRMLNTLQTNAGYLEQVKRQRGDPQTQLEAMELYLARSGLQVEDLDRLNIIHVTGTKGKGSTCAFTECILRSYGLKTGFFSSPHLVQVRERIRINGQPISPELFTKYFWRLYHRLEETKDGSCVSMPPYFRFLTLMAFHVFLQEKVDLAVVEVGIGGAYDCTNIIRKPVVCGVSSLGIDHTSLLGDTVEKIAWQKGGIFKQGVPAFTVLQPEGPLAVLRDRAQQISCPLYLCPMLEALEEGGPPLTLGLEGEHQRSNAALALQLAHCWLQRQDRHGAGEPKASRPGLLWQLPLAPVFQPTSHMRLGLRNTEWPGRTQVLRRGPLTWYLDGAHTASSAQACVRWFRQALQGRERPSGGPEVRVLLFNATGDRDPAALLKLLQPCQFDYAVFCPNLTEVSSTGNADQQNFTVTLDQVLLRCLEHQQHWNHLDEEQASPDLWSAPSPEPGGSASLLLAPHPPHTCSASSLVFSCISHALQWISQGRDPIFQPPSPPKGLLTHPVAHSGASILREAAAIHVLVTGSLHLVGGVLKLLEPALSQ

[2] = compound: Nc1nc(O)c2c(n1)NCC(CNc1ccc3c(c1)CN([C@@H](CCC(=O)O)C(=O)O)C3=O)C2; assay: (§1) Binding affinity as Competitive substrate in the presence of 10 uM tetrahydrofolate towards recombinant Human Folyl-polyglutamate synthase (FPGS)
[3] = compound: Nc1nc(O)c2c(n1)NCC(CNc1ccc(C(=O)NC(CCC(=O)O)C(=O)O)cc1)C2; assay: as §1
[4] = compound: Nc1nc(O)c2cc(CNc3ccc4c(c3)CN([C@@H](CCC(=O)O)C(=O)O)C4=O)cnc2n1; assay: as §1

Question: How did the Ki [1] turn out when NCCC[C@@H](C(=O)O)N1Cc2cc(NCc3cnc4nc(N)[nH]c(=O)c4c3)ccc2C1=O was run?
Answer: The Ki was 110 µM.

Question: NCCC[C@@H](C(=O)O)N1Cc2cc(NCC3CNc4nc(N)nc(O)c4C3)ccc2C1=O (stereo not given in full) was tested. Which Ki [1] did it give?
Answer: The Ki was 0.2 µM.

B1: Folylpolyglutamate synthase, mitochondrial (Homo sapiens), Q05932 (protein)
chain: MSRARSHLRAALFLAAASARGITTQVAARRGLSAWPVPQEPSMEYQDAVRMLNTLQTNAGYLEQVKRQRGDPQTQLEAMELYLARSGLQVEDLDRLNIIHVTGTKGKGSTCAFTECILRSYGLKTGFFSSPHLVQVRERIRINGQPISPELFTKYFWRLYHRLEETKDGSCVSMPPYFRFLTLMAFHVFLQEKVDLAVVEVGIGGAYDCTNIIRKPVVCGVSSLGIDHTSLLGDTVEKIAWQKGGIFKQGVPAFTVLQPEGPLAVLRDRAQQISCPLYLCPMLEALEEGGPPLTLGLEGEHQRSNAALALQLAHCWLQRQDRHGAGEPKASRPGLLWQLPLAPVFQPTSHMRLGLRNTEWPGRTQVLRRGPLTWYLDGAHTASSAQACVRWFRQALQGRERPSGGPEVRVLLFNATGDRDPAALLKLLQPCQFDYAVFCPNLTEVSSTGNADQQNFTVTLDQVLLRCLEHQQHWNHLDEEQASPDLWSAPSPEPGGSASLLLAPHPPHTCSASSLVFSCISHALQWISQGRDPIFQPPSPPKGLLTHPVAHSGASILREAAAIHVLVTGSLHLVGGVLKLLEPALSQ
Question: What does the source list for B1?
Answer: Km [2]: 0.018 µM; Km [3]: 0.26 µM; Km [4]: 2.3 µM
